We go through one molecule from publication PMC11183095 (2024).

The assay deals with Recombinant His-PGAM1 (human, UniProt P18669 1-254). Description: BLI. In general terms: BLI is a label-free optical method that tracks binding on a fibre tip over time.
Sequence of Recombinant His-PGAM1 (P18669 whole entry): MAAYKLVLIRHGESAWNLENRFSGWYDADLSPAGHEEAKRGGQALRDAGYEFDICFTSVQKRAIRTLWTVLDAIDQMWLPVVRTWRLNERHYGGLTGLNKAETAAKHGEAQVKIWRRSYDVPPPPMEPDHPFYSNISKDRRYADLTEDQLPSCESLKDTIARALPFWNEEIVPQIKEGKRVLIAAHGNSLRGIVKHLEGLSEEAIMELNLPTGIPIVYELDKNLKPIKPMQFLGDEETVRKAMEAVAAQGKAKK

B1: Recombinant GST-PKM2 (enzyme)
chain: not shown
With B1, the Kd was 2240 nM.

As a reminder, the Kd is the concentration at which binding is half-saturated.
